Molecular target: SARS-CoV-2 spike receptor-binding domain (amino acids 333–529), bacteria-expressed and refolded (SARS-CoV-2, parental (WT) RBD, UniProt P0DTC2)
Assay: SPR
Conditions: both partners purified

B1: sybody Sb68 (VHH)
VHH: QVQLVESGGGSVQAGGSLRLSCAASGSISSITYLGWFRQAPGKEREGVAALITVNGHTYYADSVKGRFTVSLDNAKNTVYLQMNSLKPEDTALYYCAAAAWGYAWPLHQDDYWYWGQGTQVTVSA
For B1, the Kd was 6.8 to 62.7 nM.
